Here are results for six molecules from patent US20250042992A1 (University of California, published 2025).

In assay [1] the target is human-mouse chimeric DLK1 HM1-mGFP on HEK293T cells (region 1 of human DLK1 long form replaced with mouse). Nature of the assay: direct flow cytometry, control antibody at 20ug/ml, cells 834 HEK293T DLK1HM1-mGFP; no ab 1,385.00; same antibody on HEK293T parental 4,432.00. Background: Flow cytometry measures light scatter and fluorescence of single cells or particles in a stream.

For assay [2], the target named is human-mouse chimeric DLK1 HM2-mGFP on HEK293T cells (region 2 of human DLK1 long form replaced with mouse). Nature of the assay: direct flow cytometry, control antibody at 20ug/ml, cells 835 HEK293T DLK1HM2-mGFP; no ab 1,251.00; same antibody on HEK293T parental 4,432.00.
The target in assay [3] is human-mouse chimeric DLK1 HM3-mGFP on HEK293T cells (region 3 of human DLK1 long form replaced with mouse). Nature of the assay: direct flow cytometry, control antibody at 20ug/ml, cells 836 HEK293T DLK1HM3-mGFP; no ab 1,657.50; same antibody on HEK293T parental 4,432.00.
Assay [4] concerns the target human-mouse chimeric DLK1 HM4-mGFP on HEK293T cells (region 4 of human DLK1 long form replaced with mouse). The assay can be described thus: direct flow cytometry, control antibody at 20ug/ml, cells 837 HEK293T DLK1HM4-mGFP; no ab 1,516.00; same antibody on HEK293T parental 4,432.00.
In assay [5] the target is human-mouse chimeric DLK1 HM7-mGFP on HEK293T cells (region 7 of human DLK1 long form replaced with mouse). The assay can be described thus: direct flow cytometry, control antibody at 20ug/ml, cells 848 HEK293T DLK1 HM7-mGFP; no ab 1,583.50; same antibody on HEK293T parental 4,432.00.
Assay [6] addresses human-mouse chimeric DLK1 HM8-mGFP on HEK293T cells (region 8 of human DLK1 long form replaced with mouse). Nature of the assay: direct flow cytometry, control antibody at 20ug/ml, cells 849 HEK293T DLK1 HM8-mGFP; no ab 1,653.50; same antibody on HEK293T parental 4,432.00.
The target in assay [7] is human-mouse chimeric DLK1 HM5-mGFP on HEK293T cells (region 5 of human DLK1 long form replaced with mouse). The assay can be described thus: direct flow cytometry, control antibody at 20ug/ml, cells 850 HEK293T DLK1 HM5-mGFP; no ab 1,807.00; same antibody on HEK293T parental 4,432.00.
The target of assay [8] is human-mouse chimeric DLK1 HM6-mGFP on HEK293T cells (region 6 of human DLK1 long form replaced with mouse). The assay can be described thus: direct flow cytometry, control antibody at 20ug/ml, cells 851 HEK293T DLK1 HM6-mGFP; no ab 1,992.00; same antibody on HEK293T parental 4,432.00.
Assay [9] deals with human DLK1 long form (isoform 1, DLK1-FL) fused to mGFP, overexpressed on HEK293T cells (human) (UniProt P80370). The assay can be described thus: direct flow cytometry, control antibody at 20ug/ml, cells HEK293T DLK1 mGFP G06 (long form); no ab 1,649.00; same antibody on HEK293T parental 4,432.00.
The target is the same in assay [10]. The assay can be described thus: direct flow cytometry, AF647-labelled control antibody at 20ug/ml, cells HEK293T DLK1 mGFP G06 (long form); same antibody on HEK293T parental 21,331.00.
For assay [11], the target named is human DLK1 short form (isoform 2, DLK1-MB) fused to mGFP, expressed on HEK293T cells (human) (UniProt P80370). Nature of the assay: direct flow cytometry, AF647-labelled control antibody at 20ug/ml, cells 832-HEK293T DLK1 Iso2-mGFP mass pop (short form); same antibody on HEK293T parental 21,331.00.
The target of assay [12] is human DLK1 long form (isoform 1, DLK1-FL) fused to mGFP, overexpressed on HEK293T cells (human) (UniProt P80370). Nature of the assay: indirect flow cytometry, 1° control antibody at 4ug/ml detected with an AF-647 secondary antibody, cells HEK293T DLK1 mGFP G06 (long form); same antibody on HEK293T parental 3,130.00.
Assay [13] deals with human DLK1 short form (isoform 2, DLK1-MB) fused to mGFP, expressed on HEK293T cells (human) (UniProt P80370). The assay can be described thus: indirect flow cytometry, 1° control antibody at 4ug/ml detected with an AF-647 secondary antibody, cells 832-HEK293T DLK1 Iso2-mGFP mass pop (short form); same antibody on HEK293T parental 3,130.00.
Assay [14] deals with human DLK1 endogenously expressed on COR-L279 small cell lung carcinoma cells (human) (UniProt P80370). Nature of the assay: flow cytometry, (His)6-tagged scFv detected with AF647-anti-His tag 2° Ab, CORL279 (DLK1+) cells; same scFv on M202 (DLK1-) 11,680.00; 2° Ab only on CORL279 63,034.00; no ab 4,394.00.
Assay [15] addresses DLK1 ECD-mFc long form (human DLK1-FL, isoform 1) (human) (UniProt P80370). The assay can be described thus: ELISA, plate coated with DLK1 ECD-mFc long form, anti-human IgG Fc-HRP detection. (In general: An ELISA detects its analyte on a solid surface through an enzyme-linked reagent.)
Assay [16] has the same target. The assay can be described thus: ELISA, plate coated with long form of DLK1 ECD-mFc (isoform 1), anti-human IgG Fc-HRP, OD450nm.
For assay [17], the target named is human DLK1 long form (isoform 1, DLK1-FL) fused to mGFP, overexpressed on HEK293T cells (human) (UniProt P80370). Nature of the assay: direct flow cytometry, AF647-labelled antibody at 20ug/ml, cells HEK293T DLK1 mGFP G06 (long form); same antibody on HEK293T parental 17,562.00.
Assay [18] shares this target. Nature of the assay: indirect flow cytometry, 1° antibody at 4ug/ml detected with an AF-647 secondary antibody, cells HEK293T DLK1 mGFP G06 (long form); same antibody on HEK293T parental 2,827.00.
For assay [19], the target named is human DLK1 short form (isoform 2, DLK1-MB) fused to mGFP, expressed on HEK293T cells (human) (UniProt P80370). Nature of the assay: direct flow cytometry, AF647-labelled antibody at 20ug/ml, cells 832-HEK293T DLK1 Iso2-mGFP mass pop (short form); same antibody on HEK293T parental 17,562.00; hIgG1-AF647 on the same cells 29,714.00.
Assay [20] shares this target. Nature of the assay: indirect flow cytometry, 1° antibody at 4ug/ml detected with an AF-647 secondary antibody, cells 832-HEK293T DLK1 Iso2-mGFP mass pop (short form); same antibody on HEK293T parental 2,827.00; hIgG1 on the same cells 2,895.00.
Assay [21] addresses human DLK1 endogenously expressed on COR-L279 small cell lung carcinoma cells (human) (UniProt P80370). The assay can be described thus: flow cytometry, (His)6-tagged scFv detected with AF647-anti-His tag 2° Ab, CORL279 (DLK1+) cells; same scFv on M202 (DLK1-) 8,072.00; 2° Ab only on CORL279 63,034.00; no ab 4,394.00.
Assay [22] shares this target. Nature of the assay: flow cytometry, ADC at 20µg/ml, row CORL-279 (SCLC, DLK+); row M202 of the same block: 4,385.0.
Assay [23] shares this target. Nature of the assay: flow cytometry, (His)6-tagged scFv detected with AF647-anti-His tag 2° Ab, CORL279 (DLK1+) cells; same scFv on M202 (DLK1-) 9,460.00; 2° Ab only on CORL279 63,034.00; no ab 4,394.00.

One may read the EC50 as the midpoint of the concentration-response curve. A low value points to higher potency in that assay.

human DLK1 short form (isoform 2, DLK1-MB) fused to mGFP, expressed on HEK293T cells (human), sequence (P80370 other isoform, or with tags, fused parts or gaps): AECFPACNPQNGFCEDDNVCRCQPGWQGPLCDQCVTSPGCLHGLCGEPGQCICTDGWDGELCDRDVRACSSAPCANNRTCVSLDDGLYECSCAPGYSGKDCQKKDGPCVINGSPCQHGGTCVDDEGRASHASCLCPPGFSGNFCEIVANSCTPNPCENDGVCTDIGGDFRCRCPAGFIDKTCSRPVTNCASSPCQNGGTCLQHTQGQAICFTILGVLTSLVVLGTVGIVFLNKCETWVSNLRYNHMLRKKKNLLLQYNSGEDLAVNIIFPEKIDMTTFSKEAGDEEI
human DLK1 long form (isoform 1, DLK1-FL) fused to mGFP, overexpressed on HEK293T cells (human), sequence (P80370 24-383): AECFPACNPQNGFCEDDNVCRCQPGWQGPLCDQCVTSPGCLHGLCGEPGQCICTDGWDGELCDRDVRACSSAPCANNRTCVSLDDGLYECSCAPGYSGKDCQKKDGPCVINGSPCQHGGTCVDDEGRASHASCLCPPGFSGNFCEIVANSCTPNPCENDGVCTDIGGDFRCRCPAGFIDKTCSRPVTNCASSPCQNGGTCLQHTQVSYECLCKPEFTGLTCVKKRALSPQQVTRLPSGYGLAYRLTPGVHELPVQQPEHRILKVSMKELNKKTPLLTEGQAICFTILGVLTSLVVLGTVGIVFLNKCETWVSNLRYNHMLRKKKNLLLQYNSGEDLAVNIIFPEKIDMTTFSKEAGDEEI
DLK1 ECD-mFc long form (human DLK1-FL, isoform 1) (human), sequence (P80370 24-303): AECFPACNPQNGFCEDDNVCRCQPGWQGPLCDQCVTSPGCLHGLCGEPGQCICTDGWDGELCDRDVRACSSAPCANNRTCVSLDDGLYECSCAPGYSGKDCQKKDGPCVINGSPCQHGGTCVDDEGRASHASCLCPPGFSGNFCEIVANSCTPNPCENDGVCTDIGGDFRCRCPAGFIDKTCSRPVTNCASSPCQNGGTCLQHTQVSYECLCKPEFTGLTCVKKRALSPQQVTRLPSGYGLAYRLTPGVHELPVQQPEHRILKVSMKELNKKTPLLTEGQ
human-mouse chimeric DLK1 HM5-mGFP on HEK293T cells (region 5 of human DLK1 long form replaced with mouse), sequence (chain, as listed by the source mutant limits assumed, form in doubt): as the sequence (P80370 24-383) above, with F4D, A6P, N8D, N11Y, D16A, Q23H, P24V, Q27E counted along it
human-mouse chimeric DLK1 HM8-mGFP on HEK293T cells (region 8 of human DLK1 long form replaced with mouse), sequence (chain, as listed by the source mutant limits assumed, form in doubt): as the sequence (P80370 24-383) above, with A93T, Y96F, K103H, D105A, T120A, R127Q counted along it

In the case of “non-targeting human IgG1 negative control antibody”, the FL4H/AF-647 signal in assay [1] stood at 8760; in assay [2], 8510; in assay [3] it was 8770; in assay [4] it was 8480; in [5] it was 5270; in [6], 4360. Further, the FL4H/AF-647 signal in assay [7] came out at 7660; in assay [8], 6460; in assay [9], 9870; in [10], 47900; in assay [11], 29700; in [12] it was 4120. For the same molecule, the FL4H/AF-647 signal in assay [13] came to 2900.

B1: 04-0561-F1scfv, single chain Fv of 04-0561-F1 DLK1 antibody, with C-terminal (His)6 tag (scFv)
scFv: DIVMTQSPDSLAVSLGERVTMNCKSSQSLLQSSNQKNYLAWYQQKPGQPPKLLVYFASTRESGVPDRFSGSGSGTDFTLTISSVQAEDVAVYYCQQHYSIPLTFGQGTKLEIKGGGGSGGGGSGGGGSQVQLQESGPGLVKPSETLSLTCTVSGFSLSIYSVHWVRQPPGKGLEWIGLIWGGGSTDYNPSLKSRVTISKDTSKNQVSLKLSSVTAADTAVYYCARKEGNYLWFAYWGQGTLVTVSSHHHHHH
In assay [14], B1 had an average AF-647 fluorescence (FL4-H) of 1.43e+06.

B2: LegoChem 18A5 benchmark anti-DLK1 antibody (antibody, from another filing, V domains shown)
VH: QVQLVQSGGAVVQPGHSLRLSCEASGFKFKDYGMHWVRQAPGKGLEWLAVISHDGRNKNYADSVKGRLTISRDNSKNTLSFQMNSLRAEDTAVYYCVRDWSYAFDIWGQGTLVTVSS
VL: DIQMTQSPSFLSASVGDRVNITCRASQDISRRLAWYQQKPGKAPKLLIYGAASLQSAVASRFSGSGSGTEFTLTISSLQPEDFANYYCQQIYTTPLTFGGGTKVEIK
For B2, the 50% effective concentration (EC50) in [15] and in assay [16] was 17.9 nM each time. Also, the FL4H/AF-647 signal in assay [17] was determined as 153000; in [18], 20400; in [19] it was 43500; in assay [20] it was 3350.

B3: 04-0562-h10scfv, single chain Fv of 04-0562-h10 DLK1 antibody, with C-terminal (His)6 tag (scFv)
scFv: DIVMTQSPLSLPVTPGEPASISCRSSQSLVHINGNTYLHWYLQKPGQSPQLLIYKVSNRFSGVPDRFSGSGSGTDFTLKISRVEAEDVGVYYCSQTTHVPWTFGQGTKLEIKGGGGSGGGGSGGGGSQVQLQESGPGLVKPSETLSLTCTVSGFSLTSYGVSWVRQPPGKGLEWIGVIWGDGSTSYNPSLKSRVTISKDTSKNQVSLKLSSVTAADTAVYYCAKPDGPLGQGTLVTVSSHHHHHH
On to B3, for which the average AF-647 fluorescence (FL4-H) in [21] came out at 622000.

B4: 04-0547-h2-MMAE-AF647 (04-0547-h2 antibody conjugated to both MMAE and Alexa Fluor 647) (antibody, IgG1, V domains shown)
VH: EVQLVESGGGLVQPGGSLRLSCAASGFSISDYYMAWVRQAPGKGLEWVANINYDGTNTYYADSVKGRFTISRDNSKNTLYLQMNSLRAEDTAVYYCVRSYYYYGMEYWGQGTTVTVSS
VL: DIQMTQSPSSLSASVGDRVTITCRASHDVSTAVAWYQQKPGKAPKLLIYSASYRYTGVPSRFSGSGSGTDFTLTISSLQPEDFATYYCQQHYRIPLTFGQGTKLEIK
modifications: MC-VC-PAB-MMAE on free thiols of cysteines (see heavy chain); MC-VC-PAB-MMAE on free thiols of cysteines (about 90% at reduced interchain disulfides, average 4 MMAE per antibody); Alexa Fluor 647 label
Turning to B4, the ADC Binding Activity by Flow Cytometry (20µg/ml) in assay [22] came to 225000.

B5: 04-0547-h2scfv, single chain Fv of 04-0547-h2 DLK1 antibody, with C-terminal (His)6 tag (scFv)
scFv: DIQMTQSPSSLSASVGDRVTITCRASHDVSTAVAWYQQKPGKAPKLLIYSASYRYTGVPSRFSGSGSGTDFTLTISSLQPEDFATYYCQQHYRIPLTFGQGTKLEIKGGGGSGGGGSGGGGSEVQLVESGGGLVQPGGSLRLSCAASGFSISDYYMAWVRQAPGKGLEWVANINYDGTNTYYADSVKGRFTISRDNSKNTLYLQMNSLRAEDTAVYYCVRSYYYYGMEYWGQGTTVTVSSHHHHHH
B5 yielded an average AF-647 fluorescence (FL4-H) in assay [23] of 763000.
